B1: C9orf9 (parent)
chain: TKHKCRQLTKASLKPRGCSKPPWR

Variants of: B1
Test: protein stability index of a GFP-peptide fusion (GPS, HEK-293T) (PSI 1-6); higher = more stable
Settings: c terminus: a fixed tail appended
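Note: lentivirally expressed fusions sorted by FACS into six bins by GFP to DsRed ratio, PSI derived from sequencing read proportions per bin multiplied by bin number.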

First: TKHKCRQLTKASAKPRGCSKPPWR [L13A]
Second: TKHKCRQLTKASCKPRGCSKPPWR [L13C]
The protein stability index of the first is lower: 3.23 for the first, 3.26 for the second.

Going from TKHKCRQLTKASDKPRGCSKPPWR [L13D] to TKHKCRQLTKASEKPRGCSKPPWR [L13E], the protein stability index falls from 3.64 to 2.91.

Compared with TKHKCRQLTKASFKPRGCSKPPWR [L13F], TKHKCRQLTKASGKPRGCSKPPWR [L13G] is higher in protein stability index: 2.63 for the first, 4.47 for the second.

First: TKHKCRQLTKASHKPRGCSKPPWR [L13H]
Second: TKHKCRQLTKASIKPRGCSKPPWR [L13I]
The protein stability index of the first is lower: 2.88 for the first, 3.22 for the second.

Going from TKHKCRQLTKASMKPRGCSKPPWR [L13M] to TKHKCRQLTKASNKPRGCSKPPWR [L13N], the protein stability index rises from 2.8 to 2.92.

Going from TKHKCRQLTKASPKPRGCSKPPWR [L13P] to TKHKCRQLTKASQKPRGCSKPPWR [L13Q], the protein stability index rises from 3.42 to 3.57.

First: TKHKCRQLTKASRKPRGCSKPPWR [L13R]
Second: TKHKCRQLTKASSKPRGCSKPPWR [L13S]
The protein stability index of the first is higher: 3.55 for the first, 3.5 for the second.

Compared with TKHKCRQLTKASTKPRGCSKPPWR [L13T], TKHKCRQLTKASVKPRGCSKPPWR [L13V] is lower in protein stability index: 3.32 for the first, 2.33 for the second.

Compared with TKHKCRQLTKASWKPRGCSKPPWR [L13W], TKHKCRQLTKASYKPRGCSKPPWR [L13Y] is lower in protein stability index: 3.03 for the first, 2.43 for the second.

First: TKHKCRQLTKASLAPRGCSKPPWR [K14A]
Second: TKHKCRQLTKASLCPRGCSKPPWR [K14C]
The protein stability index of the first is lower: 2.24 for the first, 2.63 for the second.

Compared with TKHKCRQLTKASLDPRGCSKPPWR [K14D], TKHKCRQLTKASLEPRGCSKPPWR [K14E] is higher in protein stability index: 2.2 for the first, 3 for the second.

Compared with TKHKCRQLTKASLFPRGCSKPPWR [K14F], TKHKCRQLTKASLIPRGCSKPPWR [K14I] is lower in protein stability index: 2.78 for the first, 2.2 for the second.

Going from TKHKCRQLTKASLLPRGCSKPPWR [K14L] to TKHKCRQLTKASLMPRGCSKPPWR [K14M], the protein stability index falls from 2.75 to 1.73.

First: TKHKCRQLTKASLNPRGCSKPPWR [K14N]
Second: TKHKCRQLTKASLPPRGCSKPPWR [K14P]
The protein stability index of the first is higher: 3.41 for the first, 2.98 for the second.

Compared with TKHKCRQLTKASLQPRGCSKPPWR [K14Q], TKHKCRQLTKASLRPRGCSKPPWR [K14R] is lower in protein stability index: 2.68 for the first, 2.52 for the second.

First: TKHKCRQLTKASLSPRGCSKPPWR [K14S]
Second: TKHKCRQLTKASLTPRGCSKPPWR [K14T]
The protein stability index of the first is lower: 2.86 for the first, 3.17 for the second.

Compared with TKHKCRQLTKASLVPRGCSKPPWR [K14V], TKHKCRQLTKASLWPRGCSKPPWR [K14W] is lower in protein stability index: 2.79 for the first, 2.56 for the second.

Going from TKHKCRQLTKASLYPRGCSKPPWR [K14Y] to TKHKCRQLTKASLKCRGCSKPPWR [P15C], the protein stability index rises from 1.54 to 2.5.

Compared with TKHKCRQLTKASLKDRGCSKPPWR [P15D], TKHKCRQLTKASLKERGCSKPPWR [P15E] is lower in protein stability index: 3.17 for the first, 2.59 for the second.

First: TKHKCRQLTKASLKFRGCSKPPWR [P15F]
Second: TKHKCRQLTKASLKGRGCSKPPWR [P15G]
The protein stability index of the first is lower: 2.77 for the first, 3.41 for the second.

Going from TKHKCRQLTKASLKHRGCSKPPWR [P15H] to TKHKCRQLTKASLKIRGCSKPPWR [P15I], the protein stability index falls from 4.16 to 2.66.

First: TKHKCRQLTKASLKKRGCSKPPWR [P15K]
Second: TKHKCRQLTKASLKLRGCSKPPWR [P15L]
The protein stability index of the first is higher: 3.52 for the first, 2.01 for the second.

First: TKHKCRQLTKASLKMRGCSKPPWR [P15M]
Second: TKHKCRQLTKASLKNRGCSKPPWR [P15N]
The protein stability index of the first is lower: 2.32 for the first, 2.86 for the second.

Compared with TKHKCRQLTKASLKRRGCSKPPWR [P15R], TKHKCRQLTKASLKSRGCSKPPWR [P15S] is lower in protein stability index: 3.93 for the first, 3 for the second.

Compared with TKHKCRQLTKASLKTRGCSKPPWR [P15T], TKHKCRQLTKASLKWRGCSKPPWR [P15W] is lower in protein stability index: 2.67 for the first, 2.22 for the second.

Going from TKHKCRQLTKASLKYRGCSKPPWR [P15Y] to TKHKCRQLTKASLKPAGCSKPPWR [R16A], the protein stability index rises from 1.68 to 2.72.

Compared with TKHKCRQLTKASLKPCGCSKPPWR [R16C], TKHKCRQLTKASLKPDGCSKPPWR [R16D] is higher in protein stability index: 2.75 for the first, 3.28 for the second.

First: TKHKCRQLTKASLKPEGCSKPPWR [R16E]
Second: TKHKCRQLTKASLKPGGCSKPPWR [R16G]
The protein stability index of the first is lower: 2.33 for the first, 2.42 for the second.

Going from TKHKCRQLTKASLKPHGCSKPPWR [R16H] to TKHKCRQLTKASLKPIGCSKPPWR [R16I], the protein stability index falls from 2.6 to 2.56.

Going from TKHKCRQLTKASLKPKGCSKPPWR [R16K] to TKHKCRQLTKASLKPLGCSKPPWR [R16L], the protein stability index rises from 2 to 2.56.

Going from TKHKCRQLTKASLKPMGCSKPPWR [R16M] to TKHKCRQLTKASLKPNGCSKPPWR [R16N], the protein stability index rises from 2.45 to 3.08.

Compared with TKHKCRQLTKASLKPPGCSKPPWR [R16P], TKHKCRQLTKASLKPSGCSKPPWR [R16S] is lower in protein stability index: 3.31 for the first, 2.89 for the second.

Going from TKHKCRQLTKASLKPTGCSKPPWR [R16T] to TKHKCRQLTKASLKPVGCSKPPWR [R16V], the protein stability index rises from 2.67 to 3.76.

Compared with TKHKCRQLTKASLKPWGCSKPPWR [R16W], TKHKCRQLTKASLKPYGCSKPPWR [R16Y] is higher in protein stability index: 1.69 for the first, 2.28 for the second.

Going from TKHKCRQLTKASLKPRACSKPPWR [G17A] to TKHKCRQLTKASLKPRCCSKPPWR [G17C], the protein stability index falls from 2.83 to 1.83.

Compared with TKHKCRQLTKASLKPRDCSKPPWR [G17D], TKHKCRQLTKASLKPRECSKPPWR [G17E] is higher in protein stability index: 2.79 for the first, 3.49 for the second.

Compared with TKHKCRQLTKASLKPRFCSKPPWR [G17F], TKHKCRQLTKASLKPRHCSKPPWR [G17H] is higher in protein stability index: 2.23 for the first, 2.76 for the second.

Going from TKHKCRQLTKASLKPRICSKPPWR [G17I] to TKHKCRQLTKASLKPRKCSKPPWR [G17K], the protein stability index rises from 2.86 to 3.32.

Going from TKHKCRQLTKASLKPRLCSKPPWR [G17L] to TKHKCRQLTKASLKPRMCSKPPWR [G17M], the protein stability index falls from 2.14 to 2.09.

Compared with TKHKCRQLTKASLKPRNCSKPPWR [G17N], TKHKCRQLTKASLKPRPCSKPPWR [G17P] is lower in protein stability index: 2.43 for the first, 2.08 for the second.

Going from TKHKCRQLTKASLKPRQCSKPPWR [G17Q] to TKHKCRQLTKASLKPRRCSKPPWR [G17R], the protein stability index falls from 3.6 to 3.03.

Compared with TKHKCRQLTKASLKPRSCSKPPWR [G17S], TKHKCRQLTKASLKPRTCSKPPWR [G17T] is lower in protein stability index: 2.82 for the first, 2.78 for the second.

First: TKHKCRQLTKASLKPRWCSKPPWR [G17W]
Second: TKHKCRQLTKASLKPRYCSKPPWR [G17Y]
The protein stability index of the first is lower: 1.92 for the first, 2.52 for the second.

Going from TKHKCRQLTKASLKPRGASKPPWR [C18A] to TKHKCRQLTKASLKPRGDSKPPWR [C18D], the protein stability index rises from 2.71 to 3.06.

Compared with TKHKCRQLTKASLKPRGESKPPWR [C18E], TKHKCRQLTKASLKPRGFSKPPWR [C18F] is lower in protein stability index: 3.01 for the first, 2.69 for the second.

Compared with TKHKCRQLTKASLKPRGGSKPPWR [C18G], TKHKCRQLTKASLKPRGHSKPPWR [C18H] is lower in protein stability index: 3.76 for the first, 3.02 for the second.

Compared with TKHKCRQLTKASLKPRGISKPPWR [C18I], TKHKCRQLTKASLKPRGKSKPPWR [C18K] is higher in protein stability index: 2.2 for the first, 3.42 for the second.

Source: the supplement of paper PMC10567573
